According to PMC4339810 (Scientific Reports, 2015):

T1: HMGA2 (UniProt P52926 1-109)
T1 sequence: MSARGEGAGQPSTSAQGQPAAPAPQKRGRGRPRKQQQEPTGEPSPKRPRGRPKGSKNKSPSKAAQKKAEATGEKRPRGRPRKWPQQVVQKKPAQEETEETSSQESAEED

B1: recombinant HMGA1b (natural protein, UniProt P17096-2 1-96, looked up)
chain: MSESSSKSSQPLASKQEKDGTEKRGRGRPRKQPPKEPSEVPTPKRPRGRPKGSKNKGAAKTRKTTTTPGRKPRGRPKKLEKEEEEGISQESSEEEQ
notes: HMGA1b, isoform of HMGA1 from alternative splicing
B2: GST-NPM1 117-186 (domain or fragment, UniProt P06748 117-186, looked up)
chain: VAVEEDAESEDEEEEDVKLLSISGKRSAPGGGSKVPQKKVKLAADEDDDDDDEEDDDEDDDDDDFDDEEA
notes: also called central portion of NPM1 containing the two acidic clusters (A2 and A3)
B3: recombinant HMGA1a (natural protein, UniProt P17096-1 1-107, looked up)
chain: MSESSSKSSQPLASKQEKDGTEKRGRGRPRKQPPVSPGTALVGSQKEPSEVPTPKRPRGRPKGSKNKGAAKTRKTTTTPGRKPRGRPKKLEKEEEEGISQESSEEEQ
notes: HMGA1a, isoform of HMGA1 from alternative splicing
B4: HCRII (dsDNA)
DNA 1: GACACATTAATCTATAATCAAATA
DNA 2: TATTTGATTATAGATTAATGTGTC
B5: E3 (dsDNA)
DNA 1: AGAAAAACTCCATCTAAAAAAAAAAAAAAAAAAAAAAAAAAACA
DNA 2: TGTTTTTTTTTTTTTTTTTTTTTTTTTTTAGATGGAGTTTTTCT

How the values were obtained:
[1] = target: T2, GST-NPM1 1-295 (full length) (UniProt P06748 1-294); assay: pull-down; GST-fused NPM1 forms as bait with recombinant HMGA proteins; bound proteins seen by western blot with anti-HMGA1 and anti-HMGA2 antibodies; conditions: both partners purified
T2 construct: nucleophosmin (NPM1), printed as full length (1-295); Plasmid provided by P.G. Pelicci; pGEX 4T3 GST-NPM1 1-295 is named as the PCR template; also called full-length GST-NPM1; GST-fused NPM1 full length (1-295); source: for EMSA eluted from Glutathione Sepharose 4B

GST-NPM1 1-259 = target: T3, GST-NPM1 1-259 (UniProt P06748 1-259); assay: as above; conditions: both partners purified
T3 construct: nucleophosmin (NPM1), residues 1-259; Plasmid provided by P.G. Pelicci

GST-NPM1 1-186 = target: T4, GST-NPM1 1-186 (UniProt P06748 1-186); assay: as above; conditions: both partners purified
T4 construct: Plasmid provided by P.G. Pelicci

recombinant HMGA1a = target: B3; assay: as above; conditions: both partners purified
recombinant HMGA1b = target: B1; assay: as above; conditions: both partners purified
HMGA2 = target: T1, HMGA2; assay: EMSA; no NPM1; EMSA: 4 pmol HMGA preincubated 10 min at 4°C with GST-NPM1/GST in 25 mM Tris/HCl pH 8, 5 mM GSH (8 uL); then 0.1 pmol DNA for 10 min in 180 mM NaCl, 1 mM MgCl2
HMGA1a [2] = target: T5, HMGA1a (UniProt P17096 1-107); assay: as above
HMGA1a [3] = target: T5, HMGA1a; assay: EMSA; no NPM1; two complexes; EMSA: 4 pmol HMGA preincubated 10 min at 4°C with GST-NPM1/GST in 25 mM Tris/HCl pH 8, 5 mM GSH (8 uL); then 0.1 pmol DNA for 10 min in 180 mM NaCl, 1 mM MgCl2

T3 sequence (P06748 1-259): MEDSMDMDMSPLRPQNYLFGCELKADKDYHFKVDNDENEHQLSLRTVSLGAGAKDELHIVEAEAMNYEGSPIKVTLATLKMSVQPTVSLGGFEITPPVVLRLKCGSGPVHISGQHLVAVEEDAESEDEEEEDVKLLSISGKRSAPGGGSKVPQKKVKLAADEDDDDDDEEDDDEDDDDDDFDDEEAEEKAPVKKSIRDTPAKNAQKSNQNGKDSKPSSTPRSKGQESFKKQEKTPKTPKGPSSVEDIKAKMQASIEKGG
T2 sequence (P06748 whole entry, the tested form may be a part): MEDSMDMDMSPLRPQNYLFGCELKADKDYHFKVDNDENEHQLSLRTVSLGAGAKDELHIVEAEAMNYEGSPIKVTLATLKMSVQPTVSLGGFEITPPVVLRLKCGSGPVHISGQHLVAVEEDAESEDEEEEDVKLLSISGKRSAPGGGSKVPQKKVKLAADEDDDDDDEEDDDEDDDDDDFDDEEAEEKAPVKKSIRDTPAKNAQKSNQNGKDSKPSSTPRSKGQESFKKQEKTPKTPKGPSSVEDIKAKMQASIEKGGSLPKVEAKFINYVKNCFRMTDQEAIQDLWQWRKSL

Row | Binder | binding result [1] | binding result (GST-NPM1 1-259) | binding result (GST-NPM1 1-186) | other results
1 | B1 | binds | binds | binds | –
2 | B2 | – | – | – | binding result (recombinant HMGA1a): binds; binding result (recombinant HMGA1b): binds
3 | B3 | binds | binds | binds | –
4 | B4 | – | – | – | binding result (HMGA2): binds; binding result (HMGA1a [2]): binds
5 | B5 | – | – | – | binding result (HMGA1a [3]): binds
